# Measurements from US20240376204A1 (JIANGSU HENGRUI PHARMACEUTICALS, published 2024).
# Read-outs that look alike come from different tables or passages of the source.
# T1: his-tagged human PVRIG (h-PVRIG-his) recombinant protein (human, UniProt Q6DKI7 41-171, limits assumed)
# T1 construct: Acrobiosystems; also called Human PVRIG-his; human PVRIG recombinant protein; not shown: his tag
# T1 sequence (looked up): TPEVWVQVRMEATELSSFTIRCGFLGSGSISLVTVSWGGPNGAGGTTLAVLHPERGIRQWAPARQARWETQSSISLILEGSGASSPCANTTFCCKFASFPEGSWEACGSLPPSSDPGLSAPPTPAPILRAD
# T2: human PVRIG expressed on cells (human, UniProt Q6DKI7 41-326)
# T2 sequence (looked up): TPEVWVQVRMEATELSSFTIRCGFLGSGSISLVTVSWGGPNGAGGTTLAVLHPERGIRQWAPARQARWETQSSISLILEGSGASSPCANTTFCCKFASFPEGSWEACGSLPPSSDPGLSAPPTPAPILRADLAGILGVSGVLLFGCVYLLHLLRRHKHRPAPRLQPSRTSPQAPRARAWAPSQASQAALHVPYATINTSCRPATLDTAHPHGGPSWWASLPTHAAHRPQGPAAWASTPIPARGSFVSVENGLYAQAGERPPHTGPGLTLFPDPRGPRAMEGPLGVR
# T3: human TIGIT expressed on cells (human, UniProt Q495A1 22-244)
# T3 construct: whole, on cells; also called cells overexpressing human TIGIT; CHO-K1 cell strain expressing the human TIGIT gene
# T3 sequence (looked up): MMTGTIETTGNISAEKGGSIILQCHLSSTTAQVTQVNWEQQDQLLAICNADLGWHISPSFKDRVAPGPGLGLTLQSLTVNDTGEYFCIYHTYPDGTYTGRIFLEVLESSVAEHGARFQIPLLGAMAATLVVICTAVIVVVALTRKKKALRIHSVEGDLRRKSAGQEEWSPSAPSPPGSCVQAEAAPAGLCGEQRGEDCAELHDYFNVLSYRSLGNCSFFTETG
# T4: human TIGIT recombinant protein (human, UniProt Q495A1 22-141)
# T4 construct: also called human TIGIT antigen (AcroBiosystem, TIT-H52H3); TIGIT protein
# T4 sequence (looked up): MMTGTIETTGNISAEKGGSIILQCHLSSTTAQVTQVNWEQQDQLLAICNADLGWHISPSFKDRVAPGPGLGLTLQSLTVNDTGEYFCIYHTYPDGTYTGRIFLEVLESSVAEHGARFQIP
# B1: Tab5 (antibody, human IgG4 S228P, kappa, F234A L235A, V domains shown)
# VH: EVQLVESGGGVVKPGGSLRLSCAASGFTFGTSSMNWVRQAPGKGLEWVAVISFDGTEIHYADSVKGRFTISRDNSKSTVFLQMNSLRPDDTALYYCAKGSGNIYFYSGMDVWGQGTTVTVSS
# VL: DIQMTQSPSTLSASVGDRVTITCRAGQSISGWLAWFQQKPGKAPNLLIYETSTLESGVPSRFSGSGSGTEYTLTISSLQPDDFATYYCQQYYSYPLTFGQGTKVEIKR
# notes: Anti-PVRIG positive control, IgG4 S228P/F234A/L235A/K447A; also called positive antibody Tab5; CPA.7.021 variable regions on human IgG4/kappa
# B2: 1708-151-4 (bispecific antibody, human IgG4 S228P, kappa)
# heavy: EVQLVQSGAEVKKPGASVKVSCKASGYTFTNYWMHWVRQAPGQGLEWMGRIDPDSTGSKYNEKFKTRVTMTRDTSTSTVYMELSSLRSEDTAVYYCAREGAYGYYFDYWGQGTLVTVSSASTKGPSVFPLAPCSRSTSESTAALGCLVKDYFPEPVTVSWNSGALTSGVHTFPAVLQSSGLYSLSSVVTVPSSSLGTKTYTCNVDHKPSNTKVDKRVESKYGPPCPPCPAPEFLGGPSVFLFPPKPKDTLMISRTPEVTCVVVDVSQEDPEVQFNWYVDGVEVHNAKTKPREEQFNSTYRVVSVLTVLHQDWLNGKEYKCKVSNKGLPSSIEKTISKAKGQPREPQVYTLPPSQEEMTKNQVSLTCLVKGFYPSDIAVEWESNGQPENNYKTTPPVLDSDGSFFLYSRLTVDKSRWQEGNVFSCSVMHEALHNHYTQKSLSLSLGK
# light: DIQMTQSPSSLSASVGDRVTITCRASENIYSYLAWYQQKPGKSPKLLIYNARTLAEGVPSRFSGSGSGTDFTLTISSLQPEDFATYYCQYHSGSPLPFGGGTKVEIKRTVAAPSVFIFPPSDEQLKSGTASVVCLLNNFYPREAKVQWKVDNALQSGNSQESVTEQDSKDSTYSLSSTLTLSKADYEKHKVYACEVTHQGLSSPVTKSFNRGECGGGGSGGGGSHVQLVESGGGSVQAGGSLRLSCVASASGFTYRPYCMAWFRQAPGKEREAVAGIDIFGGTTYADSVKGRFTASRDNAGFSLFLQMNDLKPEDTAMYYCAAGDSPDGRCPPLGQGLNYWGQGTQVTVSS
# notes: Anti-PVRIG/TIGIT
# B3: A17h1-1708-151H7-A (trispecific antibody, human IgG4 S228P, kappa)
# heavy: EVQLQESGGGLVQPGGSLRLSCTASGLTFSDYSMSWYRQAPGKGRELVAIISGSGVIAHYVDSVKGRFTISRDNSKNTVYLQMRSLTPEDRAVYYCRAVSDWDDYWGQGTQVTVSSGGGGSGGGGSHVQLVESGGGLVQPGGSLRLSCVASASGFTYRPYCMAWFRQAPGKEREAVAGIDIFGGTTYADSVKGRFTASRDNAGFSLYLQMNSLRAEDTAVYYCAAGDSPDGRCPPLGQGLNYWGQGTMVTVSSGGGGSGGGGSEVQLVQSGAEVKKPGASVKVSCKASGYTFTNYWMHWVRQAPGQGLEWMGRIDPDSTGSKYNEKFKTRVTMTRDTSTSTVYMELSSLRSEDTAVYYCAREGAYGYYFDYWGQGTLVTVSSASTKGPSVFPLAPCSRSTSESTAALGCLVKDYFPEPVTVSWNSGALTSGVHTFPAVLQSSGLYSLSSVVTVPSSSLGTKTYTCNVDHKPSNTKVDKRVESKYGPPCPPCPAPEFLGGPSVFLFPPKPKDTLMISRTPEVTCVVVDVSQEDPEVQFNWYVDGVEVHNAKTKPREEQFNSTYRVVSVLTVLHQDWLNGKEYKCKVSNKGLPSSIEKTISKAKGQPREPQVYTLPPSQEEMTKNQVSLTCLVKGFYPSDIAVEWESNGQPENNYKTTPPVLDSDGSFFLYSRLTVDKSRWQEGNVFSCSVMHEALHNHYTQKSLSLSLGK
# light: DIQMTQSPSSLSASVGDRVTITCRASENIYSYLAWYQQKPGKSPKLLIYNARTLAEGVPSRFSGSGSGTDFTLTISSLQPEDFATYYCQYHSGSPLPFGGGTKVEIKRTVAAPSVFIFPPSDEQLKSGTASVVCLLNNFYPREAKVQWKVDNALQSGNSQESVTEQDSKDSTYSLSSTLTLSKADYEKHKVYACEVTHQGLSSPVTKSFNRGEC
# B4: 1708-151-2 (bispecific antibody, human IgG4 S228P, kappa)
# heavy: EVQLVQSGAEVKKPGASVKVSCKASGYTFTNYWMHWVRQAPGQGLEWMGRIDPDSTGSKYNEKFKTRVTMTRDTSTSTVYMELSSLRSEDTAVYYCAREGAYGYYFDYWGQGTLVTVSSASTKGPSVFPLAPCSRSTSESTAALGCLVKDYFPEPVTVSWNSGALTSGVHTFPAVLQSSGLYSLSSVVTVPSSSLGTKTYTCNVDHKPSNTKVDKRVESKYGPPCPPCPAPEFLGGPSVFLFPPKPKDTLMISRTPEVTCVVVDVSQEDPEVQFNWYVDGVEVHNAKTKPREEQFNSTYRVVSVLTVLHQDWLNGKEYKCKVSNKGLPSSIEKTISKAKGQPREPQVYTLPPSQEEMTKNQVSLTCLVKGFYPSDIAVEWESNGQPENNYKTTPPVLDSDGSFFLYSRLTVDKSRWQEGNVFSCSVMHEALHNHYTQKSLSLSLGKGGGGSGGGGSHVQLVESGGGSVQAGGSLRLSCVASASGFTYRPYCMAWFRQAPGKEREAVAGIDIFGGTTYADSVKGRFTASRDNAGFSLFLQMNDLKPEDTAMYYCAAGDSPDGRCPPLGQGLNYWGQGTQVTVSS
# light: B3 light
# notes: Anti-PVRIG/TIGIT
# B5: 1708-151-1 (bispecific antibody, human IgG4 S228P, kappa)
# heavy: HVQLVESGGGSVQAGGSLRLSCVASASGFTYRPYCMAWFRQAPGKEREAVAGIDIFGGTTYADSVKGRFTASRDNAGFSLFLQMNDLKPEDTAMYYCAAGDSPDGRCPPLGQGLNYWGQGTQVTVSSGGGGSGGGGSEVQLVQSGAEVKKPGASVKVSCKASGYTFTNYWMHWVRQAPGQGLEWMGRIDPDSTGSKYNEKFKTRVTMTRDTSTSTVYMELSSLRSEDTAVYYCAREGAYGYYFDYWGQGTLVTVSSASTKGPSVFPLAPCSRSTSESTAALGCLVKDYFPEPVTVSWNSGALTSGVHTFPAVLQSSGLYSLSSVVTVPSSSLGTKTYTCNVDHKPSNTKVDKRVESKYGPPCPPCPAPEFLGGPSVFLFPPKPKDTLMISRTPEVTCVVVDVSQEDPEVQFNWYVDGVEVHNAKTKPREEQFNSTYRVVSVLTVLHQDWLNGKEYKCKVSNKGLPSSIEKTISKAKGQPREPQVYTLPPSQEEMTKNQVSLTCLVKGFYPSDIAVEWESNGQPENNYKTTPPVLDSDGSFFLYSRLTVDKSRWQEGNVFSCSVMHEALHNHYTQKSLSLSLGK
# light: B3 light
# notes: Anti-PVRIG/TIGIT
# B6: 1708-151-3 (bispecific antibody, human IgG4 S228P, kappa)
# heavy: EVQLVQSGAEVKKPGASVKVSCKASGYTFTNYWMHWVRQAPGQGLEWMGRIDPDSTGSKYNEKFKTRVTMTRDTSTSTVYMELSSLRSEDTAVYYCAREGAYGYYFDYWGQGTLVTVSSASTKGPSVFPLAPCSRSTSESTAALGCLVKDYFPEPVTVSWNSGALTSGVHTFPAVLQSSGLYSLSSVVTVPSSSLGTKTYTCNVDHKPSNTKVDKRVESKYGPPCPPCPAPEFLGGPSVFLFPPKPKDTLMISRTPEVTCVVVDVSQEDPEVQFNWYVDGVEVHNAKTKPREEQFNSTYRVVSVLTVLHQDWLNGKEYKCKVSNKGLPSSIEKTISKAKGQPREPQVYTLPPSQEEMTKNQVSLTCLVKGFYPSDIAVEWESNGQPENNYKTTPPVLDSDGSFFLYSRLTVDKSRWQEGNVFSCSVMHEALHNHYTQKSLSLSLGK
# light: HVQLVESGGGSVQAGGSLRLSCVASASGFTYRPYCMAWFRQAPGKEREAVAGIDIFGGTTYADSVKGRFTASRDNAGFSLFLQMNDLKPEDTAMYYCAAGDSPDGRCPPLGQGLNYWGQGTQVTVSSGGGGSGGGGSDIQMTQSPSSLSASVGDRVTITCRASENIYSYLAWYQQKPGKSPKLLIYNARTLAEGVPSRFSGSGSGTDFTLTISSLQPEDFATYYCQYHSGSPLPFGGGTKVEIKRTVAAPSVFIFPPSDEQLKSGTASVVCLLNNFYPREAKVQWKVDNALQSGNSQESVTEQDSKDSTYSLSSTLTLSKADYEKHKVYACEVTHQGLSSPVTKSFNRGEC
# notes: Anti-PVRIG/TIGIT
# B7: A17h1-1708-151H7-D (trispecific antibody, human IgG4 S228P, kappa)
# heavy: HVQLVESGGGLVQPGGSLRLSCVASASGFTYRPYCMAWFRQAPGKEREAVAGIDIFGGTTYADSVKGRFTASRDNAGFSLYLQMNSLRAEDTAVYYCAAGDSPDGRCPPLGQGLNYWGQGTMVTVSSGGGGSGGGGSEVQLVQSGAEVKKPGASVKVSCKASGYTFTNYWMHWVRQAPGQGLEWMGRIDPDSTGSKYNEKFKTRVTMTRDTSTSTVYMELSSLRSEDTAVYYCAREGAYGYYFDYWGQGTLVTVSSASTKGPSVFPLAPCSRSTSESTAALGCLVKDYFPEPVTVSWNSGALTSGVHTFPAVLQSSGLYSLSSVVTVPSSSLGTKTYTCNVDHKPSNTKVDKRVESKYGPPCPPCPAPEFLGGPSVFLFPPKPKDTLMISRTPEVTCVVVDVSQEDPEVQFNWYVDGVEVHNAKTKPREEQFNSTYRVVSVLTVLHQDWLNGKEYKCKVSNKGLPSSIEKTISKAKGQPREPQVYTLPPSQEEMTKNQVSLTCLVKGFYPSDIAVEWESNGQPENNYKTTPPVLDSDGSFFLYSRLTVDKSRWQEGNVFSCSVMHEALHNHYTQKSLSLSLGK
# light: DIQMTQSPSSLSASVGDRVTITCRASENIYSYLAWYQQKPGKSPKLLIYNARTLAEGVPSRFSGSGSGTDFTLTISSLQPEDFATYYCQYHSGSPLPFGGGTKVEIKRTVAAPSVFIFPPSDEQLKSGTASVVCLLNNFYPREAKVQWKVDNALQSGNSQESVTEQDSKDSTYSLSSTLTLSKADYEKHKVYACEVTHQGLSSPVTKSFNRGECGGGGSGGGGSEVQLQESGGGLVQPGGSLRLSCTASGLTFSDYSMSWYRQAPGKGRELVAIISGSGVIAHYVDSVKGRFTISRDNSKNTVYLQMRSLTPEDRAVYYCRAVSDWDDYWGQGTQVTVSS
# What was measured:
# [1] = biological target: T1, his-tagged human PVRIG (h-PVRIG-his) …; test: BLI (Fortebio), antibody on Protein A sensor, his-tagged human PVRIG as analyte
# Experimental: A Protein A biosensor (Fortebio, #18-5010) was immersed in 200 μL of KB buffer (PBS, pH 7.4, 0.02% tween-20, 0.10% BSA) for 60 s as a wetting treatment. Then an anti-PVRIG antibody was diluted to 10 μg/mL with KB buffer, and the sensor was immersed in 200 μL of the solution until the reading was 1.2 nm. The sensor was immersed in KB buffer for 100 s to remove excess antibody. […] The sensor was placed in the solution for 300 seconds of binding and then in KB buffer for 600 seconds of dissociation. Fitting was performed using a dynamic 1:1 binding mode.
# [2] = biological target: T2, human PVRIG expressed on cells; test: cell-based or functional assay
# [3] = biological target: T2, human PVRIG expressed on cells; test: cell-based or functional assay; remark: listed apart in the source
# [4] = biological target: T2, human PVRIG expressed on cells; test: cell-based or functional assay; remark: listed apart in the source
# [5] = biological target: T3, human TIGIT expressed on cells; test: FACS by the method of Example 2-2 with human TIGIT; numbers not given
# [6] = biological target: T4, human TIGIT recombinant protein; test: ELISA by the method of Example 2-2 with human TIGIT; numbers not given
# [7] = biological target: T5, human PD-1 expressed on cells (human, UniProt Q15116 25-288); test: cell-based or functional assay
# T5 sequence (Q15116 25-288 limits assumed): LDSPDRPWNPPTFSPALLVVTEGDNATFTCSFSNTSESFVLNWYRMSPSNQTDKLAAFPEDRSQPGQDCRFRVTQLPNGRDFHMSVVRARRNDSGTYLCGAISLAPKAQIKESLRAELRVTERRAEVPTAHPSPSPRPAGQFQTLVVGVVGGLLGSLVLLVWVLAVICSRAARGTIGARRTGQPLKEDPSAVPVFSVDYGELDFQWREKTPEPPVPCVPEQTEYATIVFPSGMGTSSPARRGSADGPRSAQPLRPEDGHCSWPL
# [8] = biological target: T5, human PD-1 expressed on cells; test: cell-based or functional assay; remark: listed apart in the source
# [9] = biological target: T1, his-tagged human PVRIG (h-PVRIG-his) …; test: ELISA, plate coated with PVRIG protein (his tag)
# Experimental: ELISA assays were performed. TIGIT or PVRIG protein (his tag, Acrobiosystems, PVG-H52H4) was dissolved in PBS to 1 μg/mL, and the solution was added to a 96-well plate at 100 μL/well. The plate was coated with the antigen overnight at 4° C. The plate was washed with PBST solution three times. PBST/1% BSA solution was added, and the plate was incubated at 37° C. for 1 h for blocking. After three washes with PBST solution, different concentrations of the trispecific antibodies (diluted with PBST/1% BSA solution) were added, and the plate was incubated at 37° C. for 1.5 h. The plate was washed with PBST solution three times. […] After three washes with PBST solution, TMB solution was added at 100 μL/well. After 5 min of reaction at room temperature, 50 μL of stop solution was added. OD450 values were measured using a microplate reader, and EC₅₀ was calculated.
binder,measurement,setting,value
B1,kon,[1],737000 M⁻¹ s⁻¹
same,"IFNγ, mixed lymphocyte reaction, 4 nM antibody",[2],912 pg/mL
same,"IFNγ, mixed lymphocyte reaction, 20 nM antibody",[2],1420 pg/mL
same,"IFNγ, mixed lymphocyte reaction, 100 nM antibody",[2],2350 pg/mL
same,PVRIG reporter gene cell activity EC50,[3],1.38 nM
same,PVRIG reporter gene cell activity EC50,[4],0.74 nM
B2,binding result,[5],binds
same,binding result,[6],binds
B3,"DC:T MLR result, 0.1 nM antibody (unit not given)",[7],91.3
same,"DC:T MLR result, 1 nM antibody (unit not given)",[7],121
same,"DC:T MLR result, 10 nM antibody (unit not given)",[7],147
same,"DC:T MLR result, 100 nM antibody (unit not given)",[7],155
same,IC50 (read off the curve),[8],~0.9 nM
same,EC50,[9],0.0952 nM
B4,binding result,[5],binds
same,binding result,[6],binds
B5,binding result,[5],binds
same,binding result,[6],binds
B6,binding result,[5],binds
same,binding result,[6],binds
B7,"DC:T MLR result, 0.1 nM antibody (unit not given)",[7],84.8
same,"DC:T MLR result, 1 nM antibody (unit not given)",[7],97.3
same,"DC:T MLR result, 10 nM antibody (unit not given)",[7],137
same,"DC:T MLR result, 100 nM antibody (unit not given)",[7],149
same,IC50 (read off the curve),[8],~1 nM
same,EC50,[9],0.158 nM
